Reference: paper PMC5642512

Columns and labels:
Nur77 [1] = target: Nur77 (UniProt P22736); experiment: co-IP of transfected tagged proteins; conditions: reference: wild-type Flag-Bcl-2
Nur77 [2] = target: Nur77 (UniProt P22736); experiment: co-IP anti-Flag (Nur77), anti-Myc (Bcl-2) blot; conditions: reference: wild-type Myc-Bcl-2; sites S87

Q: Which “binding against the reference” value (Nur77 [1]; sites T56) does the source give for “Bcl-2 (from UniProt P10415) Flag-Bcl-2/T56A” here?
A: Its value is “weaker”.

Q: For “Bcl-2 (from UniProt P10415) Flag-Bcl-2/S87A”, which “binding against the reference” value (Nur77 [1]; sites S87) is on record?
A: The value was “weaker”.

Q: How did the “binding against the reference” value (Nur77 [2]) turn out when “Bcl-2 (from UniProt P10415) Myc-Bcl-2/S87A” was run?
A: Its value is “lost”.
